Laboratory results as given in paper PMC6241251.

Target: human SK4 (small-conductance Ca2+-activated K+ channel), full-length (human) (UniProt O15554)
Assay: cryo-EM structure

UniProt O15554, sequence (O15554 whole entry): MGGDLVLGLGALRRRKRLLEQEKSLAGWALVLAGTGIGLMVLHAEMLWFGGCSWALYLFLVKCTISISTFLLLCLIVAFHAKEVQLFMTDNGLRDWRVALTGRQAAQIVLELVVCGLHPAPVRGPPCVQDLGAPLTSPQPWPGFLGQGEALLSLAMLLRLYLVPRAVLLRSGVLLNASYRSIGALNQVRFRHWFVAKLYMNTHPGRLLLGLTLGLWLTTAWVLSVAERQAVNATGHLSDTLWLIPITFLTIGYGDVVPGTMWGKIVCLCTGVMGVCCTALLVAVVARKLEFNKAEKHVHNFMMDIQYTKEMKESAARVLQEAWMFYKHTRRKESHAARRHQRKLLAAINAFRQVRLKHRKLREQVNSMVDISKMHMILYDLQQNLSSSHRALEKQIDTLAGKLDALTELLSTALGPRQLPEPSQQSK

calmodulin (from UniProt P0DP23 1-149) (natural protein; other documents disagree on this pair)
stoichiometry N (CaMs per channel tetramer): 4
